Assays:
[1] = target: Bradykinin peptide-oligonucleotide conjugate (Brady.O1); experiment: BCS binding assay on a sequencing chip (Cycle 1), NGS count of the nanobody barcode on foundation Brady.O1_BCS4_Fd13 (non-specific peptide control)
[2] = target: Spot-Tag peptide-oligonucleotide conjugate (Spot-Tag.O1); experiment: BCS binding assay on a sequencing chip (Cycle 1), NGS count of the nanobody barcode on foundation Spot-Tag.O1_BCS4_Fd31
[3] = target: Spot-Tag peptide-oligonucleotide conjugate (Spot-Tag.O1); experiment: BCS binding assay on a sequencing chip (Cycle 1), NGS count of the nanobody barcode on foundation Spot-Tag.O1_BCS4_Fd28
[4] = target: Spot-Tag peptide-oligonucleotide conjugate (Spot-Tag.O1); experiment: BCS binding assay on a sequencing chip (Cycle 1), NGS count of the nanobody barcode on foundation Spot-Tag.O1_BCS4_Fd29
[5] = target: Spot-Tag peptide-oligonucleotide conjugate (Spot-Tag.O1); experiment: BCS binding assay on a sequencing chip (Cycle 1), NGS count of the nanobody barcode on foundation Spot-Tag.O1_BCS4_Fd19
[6] = target: Spot-Tag peptide-oligonucleotide conjugate (Spot-Tag.O1); experiment: BCS binding assay on a sequencing chip (Cycle 1), NGS count of the nanobody barcode on foundation Spot-Tag.O1_BCS4_Fd27
[7] = target: Bradykinin peptide-oligonucleotide conjugate (Brady.O1); experiment: BCS binding assay on a sequencing chip (Cycle 1), NGS count of the nanobody barcode on foundation Brady.O1_BCS4_Fd12 (non-specific peptide control)
[8] = target: Spot-Tag peptide-oligonucleotide conjugate (Spot-Tag.O1); experiment: BCS binding assay on a sequencing chip (Cycle 1), NGS count of the nanobody barcode on foundation Spot-Tag.O1_BCS4_Fd20
[9] = target: Bradykinin peptide-oligonucleotide conjugate (Brady.O1); experiment: BCS binding assay on a sequencing chip (Cycle 1), NGS count of the nanobody barcode on foundation Brady.O1_BCS4_Fd14 (non-specific peptide control)

Spot-tag nanobody-oligo conjugate (VHH)
sequencing counts of binder barcode ligated to target foundation [1]: 1620 counts | sequencing counts of binder barcode ligated to target foundation [2]: 6160 counts | sequencing counts of binder barcode ligated to target foundation [3]: 4880 counts | sequencing counts of binder barcode ligated to target foundation [4]: 10600 counts | sequencing counts of binder barcode ligated to target foundation [5]: 6900 counts | sequencing counts of binder barcode ligated to target foundation [6]: 3380 counts | sequencing counts of binder barcode ligated to target foundation [7]: 40 counts | sequencing counts of binder barcode ligated to target foundation [8]: 9650 counts | sequencing counts of binder barcode ligated to target foundation [9]: 587 counts

— patent US20210079398A1
